Test results as given in article PMC8892010.

Key:
[1] = inside-out patch clamp, G-V, 0 Ca2+; details: glycan lost; control: γ3 WT, untreated cells
[2] = cell surface immunoprecipitation, N-terminal FLAG; details: glycan lost, untreated cells; for localisation_or_trafficking, other: percent decrease: control: γ1 WT
[3] = inside-out patch clamp, G-V Boltzmann fits, 0 Ca2+; details: glycan lost, untreated cells; for other: BK channel gating modulation: control: γ2 WT
[4] = whole-cell lysate anti-FLAG immunoblot; details: glycan lost, untreated cells

B1: BK channel γ3 subunit (LRRC55): tunicamycin (protein)
parent chain: MGDTWAQLPWPGPPHPAMLLISLLLAAGLMHSDAGTSCPVLCTCRNQVVDCSSQRLFSVPPDLPMDTRNLSLAHNRITAVPPGYLTCYMELQVLDLHNNSLMELPRGLFLHAKRLAHLDLSYNNFSHVPADMFQEAHGLVHIDLSHNPWLRRVHPQAFQGLMQLRDLDLSYGGLAFLSLEALEGLPGLVTLQIGGNPWVCGCTMEPLLKWLRNRIQRCTADSQLAECRGPPEVEGAPLFSLTEESFKACHLTLTLDDYLFIAFVGFVVSIASVATNFLLGITANCCHRWSKASEEEEI
[1]
  other: BK channel gating modulation, other: V1/2: abolishes, 160.1 ± 7.4 vs 115.0 ± 1.7
[2]; control: γ3 WT
  localisation_or_trafficking: abolishes

B2: BK channel γ2 subunit (LRRC52): N148Q (protein)
parent chain: MSLASGPGPGWLLFSFGMGLVSGSKCPNNCLCQAQEVICTGKQLTEYPLDIPLNTRRLFLNENRITSLPAMHLGLLSDLVYLDCQNNRIREVMDYTFIGVFKLIYLDLSSNNLTSISPFTFSVLSNLVQLNIANNPHLLSLHKFTFANTTSLRYLDLRNTGLQTLDSAALYHLTTLETLFLSGNPWKCNCSFLDFAIFLIVFHMDPSDDLNATCVEPTELTGWPITRVGNPLRYMCITHLDHKDYIFLLLIGFCIFAAGTVAAWLTGVCAVLYQNTRHKSSEEDEDEAGTRVEVSRRIFQTQTSSVQEFPQLI
[3]
  other: BK channel gating modulation: decreases

B3: BK channel γ2 subunit (LRRC52): N211Q (protein)
parent chain: B2 parent chain
[3]
  other: BK channel gating modulation: decreases

B4: BK channel γ2 subunit (LRRC52): N112Q (protein)
parent chain: B2 parent chain
[3]
  other: BK channel gating modulation: decreases

B5: BK channel γ2 subunit (LRRC52): N112Q/N211Q (protein)
parent chain: B2 parent chain
[3]
  other: BK channel gating modulation: decreases

B6: BK channel γ2 subunit (LRRC52): triple-site mutant (N112Q/N148Q/N211Q) (protein)
parent chain: B2 parent chain
[4]; control: γ2 WT
  expression_or_secretion: decreases

B7: BK channel γ2 subunit (LRRC52): N148Q/N211Q (protein)
parent chain: B2 parent chain
[3]
  other: BK channel gating modulation: decreases

B8: BK channel γ2 subunit (LRRC52): tunicamycin (protein)
parent chain: B2 parent chain
[4]; control: γ2 WT
  expression_or_secretion: decreases
[3]
  other: BK channel gating modulation: abolishes

B9: BK channel γ2 subunit (LRRC52): N112Q/N148Q (protein)
parent chain: B2 parent chain
[3]
  other: BK channel gating modulation: decreases

B10: BK channel γ1 subunit (LRRC26): tunicamycin (protein)
parent chain: MRGPSWSRPRPLLLLLLLLSPWPVWAQVSATASPSGSLGAPDCPEVCTCVPGGLASCSALSLPAVPPGLSLRLRALLLDHNRVRALPPGAFAGAGALQRLDLRENGLHSVHVRAFWGLGALQLLDLSANQLEALAPGTFAPLRALRNLSLAGNRLARLEPAALGALPLLRSLSLQDNELAALAPGLLGRLPALDALHLRGNPWGCGCALRPLCAWLRRHPLPASEAETVLCVWPGRLTLSPLTAFSDAAFSHCAQPLALRDLAVVYTLGPASFLVSLASCLALGSGLTACRARRRRLRTAALRPPRPPDPNPDPDPHGCASPADPGSPAAAAQA
[4]; control: γ1 WT
  expression_or_secretion: no change
[2]
  localisation_or_trafficking, other: percent decrease: decreases
[3]; control: γ1 WT
  other: BK channel gating modulation, other: fraction of channels not modulated: decreases

B11: BK channel γ1 subunit (LRRC26): N147Q (protein)
parent chain: B10 parent chain
[4]; control: γ1 WT
  expression_or_secretion: no change
[2]
  localisation_or_trafficking, other: percent decrease: decreases
